Our source for the fully folded MR1 (antibody clone 26.5) remaining values is publication PMC13022675.

The experiment concerns the target GFP-tagged MR1A (MR1-GFP) expressed in clonal cell line D6 (D6ins and D6del mutants) (UniProt Q95460).
Sequence of UniProt Q95460 (Q95460 23-341, stated change not applied): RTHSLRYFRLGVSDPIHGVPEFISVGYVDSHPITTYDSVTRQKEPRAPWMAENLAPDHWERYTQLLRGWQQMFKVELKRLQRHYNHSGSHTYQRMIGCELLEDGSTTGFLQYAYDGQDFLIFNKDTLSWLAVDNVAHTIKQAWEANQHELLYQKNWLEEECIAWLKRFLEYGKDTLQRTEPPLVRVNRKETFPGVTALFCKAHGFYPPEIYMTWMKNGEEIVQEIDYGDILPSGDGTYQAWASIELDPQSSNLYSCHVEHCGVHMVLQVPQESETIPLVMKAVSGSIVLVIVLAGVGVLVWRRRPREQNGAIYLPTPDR

In turn, “β2-microglobulin (from UniProt P61769 21-119) (natural protein)” came in with a fully folded MR1 (antibody clone 26.5) remaining at the cell surface 6 h after brefeldin A, flow cytometry of 20%.
